The values below come from PMC5582868, “BLADE-ON-PETIOLE proteins act in an E3 ubiquitin ligase complex to regulate PHYTOCHROME INTERACTING FACTOR 4 abundance” (eLife, 2017).

For one assay, the target named is T1, His-GST-PIF4 (Arabidopsis thaliana (Mouse-ear cress), UniProt Q8W2F3).
T1 chain: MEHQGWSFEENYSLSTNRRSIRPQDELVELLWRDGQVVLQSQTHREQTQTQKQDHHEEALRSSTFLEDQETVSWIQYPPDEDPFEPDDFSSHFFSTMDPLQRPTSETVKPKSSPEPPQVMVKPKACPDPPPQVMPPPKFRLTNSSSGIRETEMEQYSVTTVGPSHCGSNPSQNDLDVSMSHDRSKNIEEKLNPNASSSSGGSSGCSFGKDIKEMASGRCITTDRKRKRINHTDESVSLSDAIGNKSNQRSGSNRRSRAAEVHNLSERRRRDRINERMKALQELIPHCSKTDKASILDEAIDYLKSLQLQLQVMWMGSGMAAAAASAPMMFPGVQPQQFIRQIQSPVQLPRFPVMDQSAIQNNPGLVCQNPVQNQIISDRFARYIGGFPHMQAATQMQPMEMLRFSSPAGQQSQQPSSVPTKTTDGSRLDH
Nature of the assay: GST pulldown.

The target of the next assay is T2, His-MBP-BOP2 (Arabidopsis thaliana, UniProt Q9ZVC2 1-491).
T2 construct: BLADE-ON-PETIOLE 2 (BOP2), Arabidopsis thaliana; source: Escherichia coli BL21, purified (Ni-NTA Agarose)
T2 sequence (looked up): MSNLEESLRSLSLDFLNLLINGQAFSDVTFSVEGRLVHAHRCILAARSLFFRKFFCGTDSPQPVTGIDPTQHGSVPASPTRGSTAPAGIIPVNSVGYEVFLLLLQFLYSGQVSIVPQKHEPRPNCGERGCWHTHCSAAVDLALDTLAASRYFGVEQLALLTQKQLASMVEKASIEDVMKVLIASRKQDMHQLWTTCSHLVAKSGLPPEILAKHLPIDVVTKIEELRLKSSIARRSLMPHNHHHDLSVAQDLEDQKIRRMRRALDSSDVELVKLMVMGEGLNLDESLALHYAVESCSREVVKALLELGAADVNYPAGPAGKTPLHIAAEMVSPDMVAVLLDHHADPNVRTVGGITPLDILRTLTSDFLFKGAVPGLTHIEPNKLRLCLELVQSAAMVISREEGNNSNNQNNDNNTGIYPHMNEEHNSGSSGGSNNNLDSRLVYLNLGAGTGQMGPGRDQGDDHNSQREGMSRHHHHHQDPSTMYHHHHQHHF
Nature of the assay: pull-down; 1 µg GST-PIF4 on Glutathione Sepharose 4B beads; 1 µg MBP or MBP-BOP2 added in 300 µl binding buffer (50 mM Tris-Cl pH 7.6, 100 mM NaCl, 1 mM EDTA, 1% Triton X-100, 0.5 mM DTT, 5% glycerol), 4°C, 2 hr; blot with anti-MBP. The note with it: both partners purified.

B1: His-MBP-BOP2 (protein)
chain: T2 sequence (looked up)
Regarding B1, the binding result with His-GST-PIF4 is recorded as “binds”.

B2: His-GST-PIF4 (natural protein, Arabidopsis thaliana, UniProt Q8W2F3 1-430, looked up)
chain: T1 chain
notes: also called glutathione S-transferase (GST) tagged PIF4; source: Escherichia coli BL21, purified (Ni-NTA Agarose)
Consider B2, for which, in the assay with His-MBP-BOP2, the binding result is “binds”.
